Molecular target: the molecule itself
Experiment: SEC

B1: Bacterial proteasome activator Bpa (Rv3780) of Mycobacterium tuberculosis (natural protein)
chain: MVIGLSTGSDDDDVEVIGGVDPRLIAVQENDSDESSLTDLVEQPAKVMRIGTMIKQLLEEVRAAPLDEASRNRLRDIHATSIRELEDGLAPELREELDRLTLPFNEDAVPSDAELRIAQAQLVGWLEGLFHGIQTALFAQQMAARAQLQQMRQGALPPGVGKSGQHGHGTGQYL
Which “stoichiometry N” value does the source give for B1 here?
Its value is roughly 6.

From paper PMC4254994 (PLoS ONE, 2014)
